Assay results taken from patent US20230136228A1 (LAMKAP BIO ALPHA, published 2023).

T1: human CEACAM5 (carcinoembryonic antigen, CEA), cell surface (human, UniProt P06731 35-685)
T1 construct: whole, on cells; also called CD66e
T1 sequence (looked up): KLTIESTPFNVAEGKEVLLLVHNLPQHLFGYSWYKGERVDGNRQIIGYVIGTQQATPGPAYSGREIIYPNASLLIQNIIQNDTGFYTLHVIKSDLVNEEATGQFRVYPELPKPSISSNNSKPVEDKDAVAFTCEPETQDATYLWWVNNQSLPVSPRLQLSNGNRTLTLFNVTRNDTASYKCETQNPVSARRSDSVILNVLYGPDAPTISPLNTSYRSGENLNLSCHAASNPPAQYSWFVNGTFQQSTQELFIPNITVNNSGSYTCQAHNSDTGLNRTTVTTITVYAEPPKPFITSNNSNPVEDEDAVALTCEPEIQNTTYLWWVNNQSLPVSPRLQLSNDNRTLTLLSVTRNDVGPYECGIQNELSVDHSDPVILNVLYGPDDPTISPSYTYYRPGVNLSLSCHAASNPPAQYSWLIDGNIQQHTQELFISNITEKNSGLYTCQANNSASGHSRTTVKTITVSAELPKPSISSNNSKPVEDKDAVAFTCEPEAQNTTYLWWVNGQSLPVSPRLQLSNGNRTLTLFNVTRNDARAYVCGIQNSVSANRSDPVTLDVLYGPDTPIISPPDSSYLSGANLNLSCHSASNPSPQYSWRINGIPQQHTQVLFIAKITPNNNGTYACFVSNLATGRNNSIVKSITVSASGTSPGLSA

T2: human CEACAM3 (human, UniProt P40198 35-252)
T2 construct: whole, on cells
T2 sequence (looked up): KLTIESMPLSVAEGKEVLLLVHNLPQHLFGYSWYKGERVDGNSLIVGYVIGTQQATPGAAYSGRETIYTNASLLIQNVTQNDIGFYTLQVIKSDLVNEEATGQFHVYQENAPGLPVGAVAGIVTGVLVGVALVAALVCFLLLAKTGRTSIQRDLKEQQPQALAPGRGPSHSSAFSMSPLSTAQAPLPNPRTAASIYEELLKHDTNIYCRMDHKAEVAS


Key:
[1] = target: T1, human CEACAM5 (carcinoembryonic …); assay: flow cytometry, MKN-45 cells
Description: Examples of cells that can be used include CEACAM5-positive cell lines such as the gastric adenocarcinoma cell line MKN45 (expressing 155′000 CEACAM5 molecules per cell), or the pancreatic adenocarcinoma cell line HPAF-II (expressing 108′000 CEACAM5 molecules per cell) or the colorectal adenocarcinoma cell line LS174T (expressing 26′000 CEACAM5 molecules per cell) and CEACAM5-negative cell lines, such as the lung carcinoma cell line A549 and the MKN45 CEACAM5-knock out cell line generated by CRISPR-CAS9 methodology. Cell staining and binding assessment can be performed as described above. Binding of the bsAb of the invention at 200 nM, 1000 nM and 5000 nM is 40% and higher compared to binding of TCB2014 (see Table 4 and also FIGS. 11 and 14).

[2] = target: T1, human CEACAM5 (carcinoembryonic …); assay: flow cytometry, MFI on transfected PEAK cells divided by MFI on WT PEAK cells
Method: (§1) Similarly, vectors encoding the full-length version of cyno CEACAM 5 and 6 are also used to express these proteins at the surface of PEAK and/or CHO cells. Non-transfected PEAK and/or CHO cells are used as negative control. Cells are harvested, counted, checked for viability and resuspended at 3×10⁶ cells/ml in FACS buffer (PBS 2% BSA, 0.1% NaN₃). 100 μl of the cell suspension are distributed in V-bottom 96-well plates (3×10⁵ cells/well). The supernatant is removed by centrifugation 3 minutes at 4° C., 1300 rpm and the cells incubated for 15 minutes at 4° C. with increasing concentrations of the antibody according to the invention. The antibodies carrying the anti-CEACAM5 arms to test are diluted in FACS buffer and the concentration range is 30 pM-500 nM. Cells are washed twice with cold FACS buffer and re-incubated for further 15 minutes at 4° C. with a compatible anti-human IgG secondary antibody. Cells are washed twice with cold FACS buffer and resuspended in 300 μl FACS buffer with 1:1500-diluted TOPRO-3 (Invitrogen). Fluorescence is measured using a FACSCalibur™ (BD Biosciences) or a Cytoflex Platform (Beckman Coulter). Dose-response binding curves are fitted using GraphPad Prism8 software. In the same manner, CEACAM1, CEACAM6 and other CEACAMs can be characterized.
(§2) For the bispecific antibodies AB17L3-1/N, AB71L3-1/N, AB72L3-1/N, AB73L3-1/N the MFI measured for binding to CEACAM5 transfected cells was found between 29000 and 41000 (Table 2). In contrast MFI found by using PEAK cells transfected with CEACAM 1,3,4,6,8 were found below 1000 with the only exception of a strong signal for AB72L3-1/N on CEACAM8 transfected cells. When MFI values obtained on transfected cells expressing any given CEACAM are divided by the values obtained on WT PEAK cells, “factors to PEAK WT” can be calculated (Table 3). With the exception of AB72L3-1/N, the antibodies of the invention are all specific to CEACAM5, as the “factor to PEAK WT” values are all below 2.0.

human CEACAM3 = target: T2, human CEACAM3; assay: as above
Method: as §1, §2

Binder | EC50 [1] | Top MFI value [1] | binding higher than TCB2014 (at 200 nM, 1000 nM and 5000 nM) [1] | Factor to PEAK WT [2] | Factor to PEAK WT (human CEACAM3)
AB17L3-1/N (bispecific antibody, human IgG1, kappa, lambda, L234A L235A, Kappa-lambda body, lead optimization wave 1) heavy: EVQLVESGGGLVQPGGSLKLSCAASGFTFNTYAMNWVRQAPGKGLEWVGRIRSKYNNYATYYADSVKDRFTISRDDSKNTAYLQMNSLKTEDTAVYYCVRHGNFGNSYVSWFAYWGQGTLVTVSSASTKGPSVFPLAPSSKSTSGGTAALGCLVKDYFPEPVTVSWNSGALTSGVHTFPAVLQSSGLYSLSSVVTVPSSSLGTQTYICNVNHKPSNTKVDKRVEPKSCDKTHTCPPCPAPEAAGGPSVFLFPPKPKDTLMISRTPEVTCVVVDVSHEDPEVKFNWYVDGVEVHNAKTKPREEQYNSTYRVVSVLTVLHQDWLNGKEYKCKVSNKALAAPIEKTISKAKGQPREPQVYTLPPSREEMTKNQVSLTCLVKGFYPSDIAVEWESNGQPENNYKTTPPVLDSDGSFFLYSKLTVDKSRWQQGNVFSCSVMHEALHNHYTQKSLSLSPG light 1: EIVLTQSPATLSLSPGERATLSCRASQSVNSNLNWYQQKPGQAPRLLIYHGSNRATGIPARFSGSGSGTDFTLTISSLEPEDFAVYYCQQFDYFKEHNTFGQGTKVEIKRTVAAPSVFIFPPSDEQLKSGTASVVCLLNNFYPREAKVQWKVDNALQSGNSQESVTEQDSKDSTYSLSSTLTLSKADYEKHKVYACEVTHQGLSSPVTKSFNRGEC light 2: QTVVTQEPSLTVSPGGTVTLTCRSSTGAVTTSNYANWFQQKPGQAPRGLIGGTNKRAPGTPARFSGSLLGGKAALTLSGAQPEDEAEYYCALWYKQRWVFGGGTKLTVLGQPKAAPSVTLFPPSSEELQANKATLVCLISDFYPGAVTVAWKADSSPVKAGVETTTPSKQSNNKYAASSYLSLTPEQWKSHRSYSCQVTHEGSTVEKTVAPTECS | 0.0592 µM | 862000 MFI | ≥ 40% | 55.1 fold | 1.2 fold
AB1L3-1/N (bispecific antibody, human IgG1, kappa, lambda, L234A L235A, Kappa-lambda body: common heavy chain (hIgG1 L234A+L235A+P329A), kappa CEA light chain AB1, lambda CD3 light chain L3-1 (1A4); also called parental KL bispecific antibody) heavy: EVQLVESGGGLVQPGGSLKLSCAASGFTFNTYAMNWVRQAPGKGLEWVGRIRSKYNNYATYYADSVKDRFTISRDDSKNTAYLQMNSLKTEDTAVYYCVRHGNFGNSYVSWFAYWGQGTLVTVSSASTKGPSVFPLAPSSKSTSGGTAALGCLVKDYFPEPVTVSWNSGALTSGVHTFPAVLQSSGLYSLSSVVTVPSSSLGTQTYICNVNHKPSNTKVDKRVEPKSCDKTHTCPPCPAPEAAGGPSVFLFPPKPKDTLMISRTPEVTCVVVDVSHEDPEVKFNWYVDGVEVHNAKTKPREEQYNSTYRVVSVLTVLHQDWLNGKEYKCKVSNKALAAPIEKTISKAKGQPREPQVYTLPPSREEMTKNQVSLTCLVKGFYPSDIAVEWESNGQPENNYKTTPPVLDSDGSFFLYSKLTVDKSRWQQGNVFSCSVMHEALHNHYTQKSLSLSPG light 1: EIVLTQSPATLSLSPGERATLSCRASQSVNSNLNWYQQKPGQAPRLLIYHGSNRATGIPARFSGSGSGTDFTLTISSLEPEDFAVYYCQQFDLRHEHNTFGQGTKVEIKRTVAAPSVFIFPPSDEQLKSGTASVVCLLNNFYPREAKVQWKVDNALQSGNSQESVTEQDSKDSTYSLSSTLTLSKADYEKHKVYACEVTHQGLSSPVTKSFNRGEC light 2: QTVVTQEPSLTVSPGGTVTLTCRSSTGAVTTSNYANWFQQKPGQAPRGLIGGTNKRAPGTPARFSGSLLGGKAALTLSGAQPEDEAEYYCALWYKQRWVFGGGTKLTVLGQPKAAPSVTLFPPSSEELQANKATLVCLISDFYPGAVTVAWKADSSPVKAGVETTTPSKQSNNKYAASSYLSLTPEQWKSHRSYSCQVTHEGSTVEKTVAPTECS |  |  |  | 16.8 fold | 0.8 fold
AB71L3-1/N (bispecific antibody, human IgG1, kappa, lambda, L234A L235A, Kappa-lambda body, lead optimization wave 2) heavy: EVQLVESGGGLVQPGGSLKLSCAASGFTFNTYAMNWVRQAPGKGLEWVGRIRSKYNNYATYYADSVKDRFTISRDDSKNTAYLQMNSLKTEDTAVYYCVRHGNFGNSYVSWFAYWGQGTLVTVSSASTKGPSVFPLAPSSKSTSGGTAALGCLVKDYFPEPVTVSWNSGALTSGVHTFPAVLQSSGLYSLSSVVTVPSSSLGTQTYICNVNHKPSNTKVDKRVEPKSCDKTHTCPPCPAPEAAGGPSVFLFPPKPKDTLMISRTPEVTCVVVDVSHEDPEVKFNWYVDGVEVHNAKTKPREEQYNSTYRVVSVLTVLHQDWLNGKEYKCKVSNKALAAPIEKTISKAKGQPREPQVYTLPPSREEMTKNQVSLTCLVKGFYPSDIAVEWESNGQPENNYKTTPPVLDSDGSFFLYSKLTVDKSRWQQGNVFSCSVMHEALHNHYTQKSLSLSPG light 1: EIVLTQSPATLSLSPGERATLSCRASQSVNSNLNWYQQKPGQAPRLLIYHSSNRPHGIPARFSGSGSGTDFTLTISSLEPEDFAVYYCQQFDYFKEHNTFGQGTKVEIKRTVAAPSVFIFPPSDEQLKSGTASVVCLLNNFYPREAKVQWKVDNALQSGNSQESVTEQDSKDSTYSLSSTLTLSKADYEKHKVYACEVTHQGLSSPVTKSFNRGEC light 2: QTVVTQEPSLTVSPGGTVTLTCRSSTGAVTTSNYANWFQQKPGQAPRGLIGGTNKRAPGTPARFSGSLLGGKAALTLSGAQPEDEAEYYCALWYKQRWVFGGGTKLTVLGQPKAAPSVTLFPPSSEELQANKATLVCLISDFYPGAVTVAWKADSSPVKAGVETTTPSKQSNNKYAASSYLSLTPEQWKSHRSYSCQVTHEGSTVEKTVAPTECS | 0.0341 µM | 833000 MFI | ≥ 40% | 79.7 fold | 0.8 fold
AB72L3-1/N (bispecific antibody, human IgG1, kappa, lambda, L234A L235A, Kappa-lambda body, lead optimization wave 2) heavy: EVQLVESGGGLVQPGGSLKLSCAASGFTFNTYAMNWVRQAPGKGLEWVGRIRSKYNNYATYYADSVKDRFTISRDDSKNTAYLQMNSLKTEDTAVYYCVRHGNFGNSYVSWFAYWGQGTLVTVSSASTKGPSVFPLAPSSKSTSGGTAALGCLVKDYFPEPVTVSWNSGALTSGVHTFPAVLQSSGLYSLSSVVTVPSSSLGTQTYICNVNHKPSNTKVDKRVEPKSCDKTHTCPPCPAPEAAGGPSVFLFPPKPKDTLMISRTPEVTCVVVDVSHEDPEVKFNWYVDGVEVHNAKTKPREEQYNSTYRVVSVLTVLHQDWLNGKEYKCKVSNKALAAPIEKTISKAKGQPREPQVYTLPPSREEMTKNQVSLTCLVKGFYPSDIAVEWESNGQPENNYKTTPPVLDSDGSFFLYSKLTVDKSRWQQGNVFSCSVMHEALHNHYTQKSLSLSPG light 1: EIVLTQSPATLSLSPGERATLSCRASQSVNSNLNWYQQKPGQAPRLLIYHSTNRPRGIPARFSGSGSGTDFTLTISSLEPEDFAVYYCQQFDYFKEYNTFGQGTKVEIKRTVAAPSVFIFPPSDEQLKSGTASVVCLLNNFYPREAKVQWKVDNALQSGNSQESVTEQDSKDSTYSLSSTLTLSKADYEKHKVYACEVTHQGLSSPVTKSFNRGEC light 2: QTVVTQEPSLTVSPGGTVTLTCRSSTGAVTTSNYANWFQQKPGQAPRGLIGGTNKRAPGTPARFSGSLLGGKAALTLSGAQPEDEAEYYCALWYKQRWVFGGGTKLTVLGQPKAAPSVTLFPPSSEELQANKATLVCLISDFYPGAVTVAWKADSSPVKAGVETTTPSKQSNNKYAASSYLSLTPEQWKSHRSYSCQVTHEGSTVEKTVAPTECS | 0.0245 µM | 963000 MFI | ≥ 40% | 85.3 fold | 1 fold
